Experimental data from the supplement of paper PMC10567573.

B1: CLPTM1 (parent)
chain: MNLHVYISEHEHFTDFNATSALFW
B2: VDR (parent)
chain: LIKFQVGLKKLNLHEEEHVLLMAI

Variants of: B1
Assay: protein stability index of a GFP-peptide fusion (GPS, HEK-293T) (PSI 1-6); higher = more stable
Details: c terminus: a fixed tail appended
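Also: lentivirally expressed fusions sorted by FACS into six bins by GFP to DsRed ratio, PSI derived from sequencing read proportions per bin multiplied by bin number.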

Protein stability index of substitutions, site by site:
F23: N 2.46 | I 3.19 | V 2.13 | Q 2.56 | D 3.62 | E 1.81 | C 2.69 | P 2.49 | L 5.95 | R 2.46 | Y 5.1 | H 3.78
W24: L 4.15 | K 1.88 | T 3.19 | S 3.64 | E 4.09 | D 3.34 | H 1.75 | N 2.98 | P 2.76 | Q 2.2 | F 4.25 | R 2.96 | I 1.93 | Y 2.95 | C 1.83
F16: H 3.52 | I 1.71 | K 2.96 | R 1.62 | T 1.87 | W 2.71 | Y 2.26 | S 2.19 | N 2.56 | G 2.76
T19: V 1.89 | C 2.92 | N 3.66 | M 1.52 | D 2.48 | H 2.99 | E 2.59 | I 3.09 | R 2.89 | W 1.67 | Y 2.08
S20: T 4.14 | V 2.29 | E 2.37 | H 4.53 | Y 3.45 | F 2.51 | G 2.69 | K 3.57 | R 2.1 | C 2.75 | N 3.39 | I 2.69 | A 4.95 | M 2.64 | D 4.08 | Q 2.59
A18: S 2.46 | H 3.29 | G 3.77 | Q 5.84 | L 2.01 | T 1.84 | R 3.55 | W 2.76 | E 1.97 | F 4.2 | M 4.1 | K 4.8 | V 2.92
A21: C 3.19 | K 3.78 | T 2.67 | N 2.35 | F 1.95 | E 2.62 | I 2.59 | V 2.4 | H 2.09 | G 3.69
L22: S 1.97 | I 1.59 | T 3.54 | C 4.78 | A 4.09 | G 4 | Q 3.16 | H 2.6 | Y 2.2 | R 1.1
N17: F 2.72 | E 3.66 | H 2.13 | T 3.19 | P 3.96 | K 3.02 | R 2.01 | A 2.59 | V 2.75 | C 2.72 | G 2.38 | I 3.01 | S 2.44

Variants of: B2
Assay: as above
Details: c terminus: a fixed tail appended

Protein stability index: each site, then its substitutions
L13: E 1.4 | I 2.39 | Q 3.27 | F 1.7 | V 3.02 | S 3.54 | T 3.36 | P 2.73 | H 2.3 | G 1.88 | K 3.2 | N 3.72 | R 3.69 | M 3.14 | W 2.81 | D 1.74
K9: Y 4.29 | C 5.08 | G 3.2 | Q 3.62 | D 2.79 | V 3.6 | H 1.59 | T 3.39 | S 3.17 | L 2.97 | P 3.16 | N 1.61 | R 2.63 | I 1.03 | M 3.2 | A 2.27 | F 3.38
E17: P 2.91 | H 2.34 | M 2.37 | Q 2.7 | N 2.3 | Y 3.14 | D 2.28 | L 1.8 | R 3.74 | F 1.95
H18: A 4.04 | K 3.13 | I 2.93 | N 3.21 | E 2.33 | M 3.56 | T 1.12
E16: T 2.81 | I 1.97 | L 3.15 | C 3.87 | R 2.24 | Y 1.43 | N 2.09 | K 1.77 | Q 1.57 | P 3.81
L1: S 3.27 | Q 2.25 | M 3.33 | N 2.01 | V 2.24 | I 3.18 | E 1.56 | H 2.73 | D 2.9 | F 2.01
K10: V 1.83 | N 1.9 | A 3.24 | M 2.47 | H 1.38 | C 4.27 | L 4.27 | T 2.23 | F 3.36 | P 3.19 | E 2.11 | D 3.4
N12: F 2.51 | G 2.62 | T 2.92 | E 3.9 | S 2.5 | I 2.19
L11: W 2.1 | E 3.86 | K 2.98 | M 2.93 | Q 2 | I 3.2 | T 2.03 | R 1.3 | Y 2.28 | A 2.56 | S 2.29 | F 2.14 | D 2.78 | C 3.35 | P 2.34
E15: V 2.61 | C 1.99 | G 2.92 | Q 2.77 | A 2.52 | T 3.96 | S 2.96 | L 3.71 | Y 1.94 | P 2.38 | K 2.5 | W 3.87 | F 2.77
I2: F 2.27 | P 2.73 | T 2.77 | R 4.27 | Q 3.14 | V 3 | N 2.31 | L 3.02 | Y 2.93 | D 2.05 | H 1.87 | A 3.06 | M 3.15
V6: C 3.2 | A 2.24 | L 2.91 | T 2.73 | G 2.2 | F 3.19 | S 2.98 | K 2.01 | P 2.85 | M 3.76 | D 1.47 | Q 1.74 | W 1.54 | H 4.18 | N 2.61
F4: L 4.2 | K 3.04 | E 2.15 | H 1.91 | A 2.1 | R 2.72 | W 1.5 | C 3 | N 4.44 | M 1.75 | P 1.31 | T 1.48 | S 3.39 | Y 2.64 | I 3.75 | D 3.17 | Q 2.09
K3: G 3.98 | T 2.97 | Q 1.21 | P 1.89 | W 2.91 | D 2.21
L8: M 3.04 | F 3.06 | D 3.48 | S 3.06 | H 2.3 | T 2.62 | K 2.85 | N 2.82 | I 3.67 | Q 1.56 | P 2.31 | W 1.89
V19: K 1.99 | C 1.63 | N 1.59 | T 2.52 | R 2.89 | A 1.58 | Q 3.04 | H 3.1 | D 3.54 | F 2.52 | G 1.4 | I 1.93
Q5: W 3.59 | H 2.65 | K 2.89 | F 2.56 | V 2.77 | D 4.34 | L 3.08 | N 1.79 | P 2.97
H14: C 2.28 | N 3.26 | P 2.53 | I 2.28 | K 2.66 | Y 2.93 | Q 2.43 | G 4.41 | E 4.65 | D 2.21
G7: H 3.58 | W 3.47 | C 1.72 | Q 3.23 | S 2.46 | T 2.82 | D 2.61 | Y 2.11 | M 3.9 | K 2.84 | L 2.4 | P 1.3 | F 1.75 | A 2.15
